Like-named read-outs stand apart in the source and are kept apart here.
B1: VRC01 (protein)
chain 1: QVQLVQSGGQMKKPGESMRISCRASGYEFIDCTLNWIRLAPGKRPEWMGWLKPRGGAVNYARPLQGRVTMTRDVYSDTAFLELRSLTVDDTAVYFCTRGKNCDYNWDFEHWGRGTPVIVSS
chain 2: EIVLTQSPGTLSLSPGETAIISCRTSQYGSLAWYQQRPGQAPRLVIYSGSTRAAGIPDRFSGSRWGPDYNLTISNLESGDFGVYYCQQYEFFGQGTKVQVD
B2: FD22 (protein)
chain 1: QVQLSQSGGGAVQPGKSLTLSCRAYGFHLFSYVVVWVRQTPQNGLEWVAGAASGGWPQEFMNSVRGRFSISRDDYTVSLQMNALRVDDSGLYFCAQERGLHRLDGAVKFGRWFRAWGQGSQVVVTS
chain 2: QSALTQPASVSGSPGQSITLSCTGADNSVSWYQVVPGRAPKLLIFEVNVRPSEVSDRFSGSKSGDTASLTISRLQIEDESDYYCVTRRGDVTYLFGSGTRVSVL

Target: HIV-1 gp120 protein from the BaL.01 strain (HIV-1)
Assay: BLI

Binder	Kd	Kd (biotin (EZ-Link NHS-LC-Biotin) in the competition ELISA only | biotin (EZ-Link NHS-LC-Biotin) in the competition ELISA only)
B1	25.1 nM	–
B2	–	8.88 nM
